Results published in patent publication US20170058015A1 (ALBERT EINSTEIN COLLEGE OF MEDICINE, published 2017).

Assays:
[1] = target: 8.3 T cell receptor on CD8+ T cells of 8.3 TCR transgenic NOD mice (mouse (NOD)); assay: cell-based or functional assay
[2] = target: T1, synTac 4-1BBL trimer (synTac 40+51; 4-1BBL synTac co-expressed with free 4-1BBL) (murine, UniProt P41273 50-254 (human entry), Interchain disulfide between linker Cys (GCGAS) and H-2Kd Cys84. Fc hinge disulfides join two synTac units. Two free 4-1BBL chains join each synTac-borne 4-1BBL non-covalently.); assay: flow cytometry, Protein A microbeads coated with 4-1BB-Fc; detection antibody to the synTac heavy chain isotype
T1 construct: also called Native trimer; trimeric syntac-41BBL

Sequence of synTac IGRP-PD-L1 (light chain version) (P01902 22-305, one chain of several): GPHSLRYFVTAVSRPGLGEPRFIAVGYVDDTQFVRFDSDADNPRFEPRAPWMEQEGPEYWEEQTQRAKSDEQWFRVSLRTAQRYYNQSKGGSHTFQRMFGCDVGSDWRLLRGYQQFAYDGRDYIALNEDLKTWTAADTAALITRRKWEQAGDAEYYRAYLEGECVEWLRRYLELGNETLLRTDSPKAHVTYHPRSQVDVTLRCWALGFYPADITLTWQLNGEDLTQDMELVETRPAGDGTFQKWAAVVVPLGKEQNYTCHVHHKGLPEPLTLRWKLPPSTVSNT

| IFNγ secretion by anti-CD3 stimulated CD8+ 8.3 T cells (suppression) [1] | binding result [2] | Molecule |
| --- | --- | --- |
| 100 fold |  | synTac IGRP-PD-L1 (light chain version) (from UniProt Q9Z186 206-214; P01902 22-305) (peptide-MHC) |
|  | binds | recombinant mouse 4-1BB-Fc fusion protein (Fc fusion, UniProt P20334 24-187, looked up, From commercial sources; coated on Protein A microbeads; also called murine 4-1BB; murine receptor; not shown: Fc of the commercial fusion protein) VQNSCDNCQPGTFCRKYNPVCKSCPPSTFSSIGGQPNCNICRVCAGYFRFKKFCSSTHNAECECIEGFHCLGPQCTRCEKDCRPGQELTKQGCKTCSLGTFNDQNGTGVCRPWTNCSLDGRSVLKTGTTEKDVVCGPPVVSFSPSTTISVTPEGGPGGHSLQVL |
